Measurements from a protein production outcome set (Wang et al. 2014).

Assay: label from the status in PepcDB records

For “MLKLSNFGPGALVAAAFIGPGTVVTASLAGANFGYALLWALLFSVVACVILQEMSARIGLVTQAGLGENIRNNLTSGWLRWLALLLIFSAIAIGNSVYQGGNLSGASLGASELLGPVPVLDVWLSNAWALIIGIIALLILWSGNARVIERALIVMVLLMSVAFIGTFLLTDPDWGAVFNGTFGFSMPTGATLTVVALIGTTVVPYNIFLHASSVSKKWKTAEELPAARRDLFLSIPFGGLISMAIVATAASAFFGQQVEIESAGDLAESLRPLFGDGATYLMAIGLFAAGISSATTAPLASAYALCGIMGWSVNLRSRAFRIIWFTILVIGIIISSVGIKPVTVIWFAQVANGILLPIIVGFLWWLCQSPLLGKYRNSLLQNILAAIIFLISVVLSGRSLGSAFGFW”, the protein production was “failed”.

With “MNSAPFLIFGGILAWLFVYFLRLRRFYAGEFLLGLFIFGIAITIQSIIQKASLVWFNVHAKLLISLWLGFLAGFIQEGIKYIFVKGMTPYKGAMVGLGFGIAEVILLAVVATLAGSSNVPLYLLVASATERFFAVVFHVASTSLLASSNLRIFLGVFTVHGLVDTLASYSQLSRVLNTPKVFLIEAVFGVFALFLLLISLPRIRVEKEEGPKW” the protein production was “failed”.

In the case of “TLDAPLQRRMEDLLMGWRARLPERTSAAILVVEAENMAVRAYVGSVDISDVKRFGHVDMVTALRSPGSTLKPFLYGMAMDAGLIHSESLMQDVPRRYGDYRPGNFSTGFGGPVAASSALSMSLNLPAVQLLEVYGPKRFAAELRNGGVPLTLPPLAEPNLALILGGAGSRLEDLVAGYSAFARGGRSADVRLQPQDRLRERRMMSPGAAWIIRRILSGQSRPDIDPRAELVQRPQLAWKTGTSYGFRDAWAIGVGPRFLVGVWIGRPDGTPVPGQFGLASAAPLMLQVHDVLVNRDSQRGI”, the protein production was “failed”.

For “MTNITPEAKNTNRHSVLLVEKEGRNLARKYHQVLVEELTIIKQGYKTFSSKNIAIPSGFWYHYDTSLTDSYENAKSECFYIPNDNQNYPLQEMRRDCKEYERVEKQVVFKNNKNNELNELPKYLNNAKKY”, the protein production was “failed”.

For “MDNALTFVISTLCILALCYRFYGVFFVRKVLRADDSVVTPSHTFEDGKNYVPTKKWVNAGQHFAAIAAAGPLVGPVLAAQFGYLPGFLWLLVGCVVGGAVHDTVVLFASMKHNGKSLSNVAKAELGPVAGWCTGLAMLFIITITMAGLSMVVVHALERNPWGTFAVFMTIPIAIAVGLYERFTGNHKGATWVGIIAIMVAVLAGPYIQGTLLGDWLTLRVDSVALALPIYAFFASALPVWLLLTPRGYLSSFMKIGVFGALVVGVVIINPTIQFPALTDFIHGGGPVLAGPVWPFISITIACGAISGFHAFIGSGTTPKLVDKWSDIRPVAFGAMLAECMVAVLALVAATALHPADYFAINASPAAFASLGMEVVDLPHLSQEIGMDLAGRTGGAVTLAVGMTFIFTKLPWFATLSSYFFQFVIMFEAVFILTAVDSGTRVARYLIQDLGGDLYAPLKRLDWIPGSIGASVAACALWGYLLTSGDINSVWALFGVSNQLMASIGLIIGATIILRVAAKRIYMLTCLIPLAYLFVTVNYAGYWMIANVYLNTQARGYNPINAGISAIMMVLGLIILITAFGKWKTMLALPKSLRSGEVPAPSLP”, the protein production was “failed”.

In the case of “VADTDGHYRVRAITEISSFNETLGATFSDKEFDTIGGLVINKFGRLPKNGESITIEGFNFTVTRADSRRLHLLKVERIEPGVVEDADSHDSV”, the protein production was “not failed”.

For “MNKNLSEKMKIAFDIKLKNFGNKIEFAYPNQTLALSTTSNQCSLKCAHCNGHYLNNMVPIEEYEEKVQSRNITSFLLSGGCSYEGDVPINTHINTIKNLKEQGYRLNAHLGLMDKDSIVELCKYLDIVSFDLVFDDETIREVYKMKKSKEDYIEVYNTIQEHTEVAPHICIGLKGGQIKGEYEIIEYLQKNPPNKLTFIVLIPTKGTEYENVEPPELEGVADILCEARINLPDTEINLGCMRPRGVYRKELDQLSIMCGVNRIVLPSRSAKNKAIEMNMTINECKECCVL”, the protein production was “failed”.

With “MMQSITTFMAALGKYDFLQSALITAIMVGVMSGIIGSFIILRGMSMMGDAISHAVLPGVAVAYMLGINVLIGASVFGILAASLIGFVASRSKIKTDTSIGIVFSAFYALGFILISLAESSTNLHHILFGNILAVSDTDMMTTTVVLGLVILFVAFFYKELLITSFDPTFAKTYGLKVQLLHYALMLVLTLVTVSALQTVGIILVVAMLITPAATAFLWTERLAVMLGLSALIGVLSSVVGLYLSYTLNWASGPAIVLVAAIFFGISFIISPKQALLPTLWKGQAAARRVTA” the protein production was “failed”.

In the case of “MSEWRGFNRKGNTMKIRPGRHNAPDFPHGAAVTIGNFDGVHLGHKHILQKLRLEADARGLPVVAVVFEPQPKEFFALRTGKTPPCRISPLRTKLELLEGTGCVDAAWVLRFDRNFSEISAQAFIDRLLRQTLNTRYLLVGDDFRFGAGREGCFELLAQQPDMQTERTPSVIVEDIRTSSTAVRQALSDGNLAYAKKLLGHDYVLGGRVVHGRKLGRTLNAPTANIRLPGHRYALGGVFVVEADGAFGTRRGVASFGFNPTVDGGCSQKLEVHLFDFQGDLYGQRLNVRFLHKLRDEEKFDGMEELKRRIEADMEAAKCW”, the protein production was “not failed”.

For “MTNMKTHAREWAALDKSACFLFCSGDNDVAQQLGHAIGDLGLLTQELPEPEQLARRLADIDPQVVFLDFTGGQADPGKLLLAADLARVLARVAPAVPRVAVGYLAQPDGAIAALRAGVSDFVDPSVSPDEVHGVVQRLVSNRRIGGGSGGEHRSVLILGARPGVGASTLAVHMAGLTQERMAQAALARQGAVAGKPARSAEVMAAQLPLSDRVGVLDLGWPIGDCLLYLNISSDFDFAEAARNLSRLDGTLLNSAMAHTASGVSALALPREVEQVRALSPNDSLLLFERLRQHYGTLVTDAGGLANPEFVAKLARASHETWLVTDQSVSALVSLAGAVQELEQFHVEKSALRLVVNRYDERYGMSAAQIAERFGLELAGTLPDRTLSLMVCTNQGRLLHEQAERDIYVRAVQTLVDRLLAGSEAPRARHNSWLANWLPGVHRLTNVVESLEHHHHHH”, the protein production was “failed”.

For “MAAALPRTLGELQLYRILQKANLLSYFDAFIQQGGDDVQQLCEAGEEEFLEIMALVGMASKPLHVRRLQKALRDWVTNPGLFNQPLTSLPVSSIPIYKLPEGSPTWLGISCSSYERSSNAREPHLKIPKCAATTCVQSLGQGKSDVVGSLALQSVGESRLWQGHHATESEHSLSPADLGSPASPKESSEALDAAAALSVAECVERMAPTLPKSDLNEVKELLKTNKKLAKMIGHIFEMNDDDPHKEEEIRKYSAIYGRFDSKRKDGKHLTLHELTVNEAAAQLCVKDNALLTRRDELFALARQISREVTYKYTYRTTKSKCGERDELSPKRIKVEDGFPDFQDSVQTLFQQARAKSEELAALSSQQPEKVMAKQMEFLCNQAGYERLQHAERRLSAGLYRQSSEEHSPNGLTSDNSDGQGERPLNLRMPNLQNRQPHHFVVDGELSRLYPSEAKSHSSESLGILKDYPHSAFTLEKKVIKTEPEDSR”, the protein production was “not failed”.

With “MASSSSTYRSSSSSDGGNNNPSDSVVTVDERKRKRMLSNRESARRSRMRKQKHVDDLTAQINQLSNDNRQILNSLTVTSQLYMKIQAENSVLTAQMEELSTRLQSLNEIVDLVQSNGAGFGVDQIDGCGFDDRTVGIDGYYDDMNMMSNVNHWGGSVYTNQPIMANDINMY” the protein production was “failed”.

With “MKDVIVIGAGPSGSFAAYRLAKAGFTVDILEEHREVGKPVECTGLVSQRVLKYVRTKSIAGTVRGANIFFPNGKSVHIEKDDPTIVLFRDAFDKDVAAMAIGAGSGIRINARALSVTEHDDHVTVRYRENGSIKEEDARIVIGADGINSVVRRDVYGMRQKHVVSTLQYDMASGIEDEDSVNVYLGSQYTHGFFGWAVPGGDIVRVGTGSYKASARPYMDNLSRRFGDNRTLGITGAGIPIRMAERLSSRRTVLVGDAGGIVKPLSGGGIYTGIFSSDVAANYVVEALESDSSEASLRKYDREIRNTIGKELKKDAMIQRIYSRISDRSFNRIYSMISNEKIIDVINRSGDIDYPSTVIIKVLLRNPGILYSMWKLEHHHHHH” the protein production was “failed”.

For “MIGAILAGGYGKRLKPITDSIPKALVEIKDNYTIMDRQLFDFSIMGIEAVYILSGYLGNKIEERYGSRYRDMNIYYLREEKPLGTLYSLRNLIDEVKDDDIVLRNGDTVTDVNFLNFLKKAQDQKYYITMYVTRMKSPFGIVETFGDQIVQFREKPELNHYINAGLYYIKSDAFPYFFEKYIDRDLETTVFPRMAREGLIGSYTEEAMWIGIDSEKDLERIRADYRNREDYPWGYLKVLYDDDRSRLLEYAIKAGSDTEIDCGDGCILRIQSGLGTFGDSSDEKFRNGDVRSISGKVRVNAFENTRLELIISKKLEHHHHHH”, the protein production was “failed”.

In the case of “MPIPKSAKSDYTKEQKDLVGNICQCKDFYKILNVDKKASPDEIRIAFRKRIREVHPDKCKHPSATEASKVVNNAFSLLMDPAKRRQYDLQ”, the protein production was “not failed”.
